Holding throughout (conditions): both partners purified
Assay [1] concerns the target T1, β2-Microglobulin (Homo sapiens, UniProt P61769).
T1 construct: human β2-microglobulin; Amine-coupled to a CM5 chip (150 RU); also called antigen β2M; source: expressed and purified as previously described [27]
Description: SPR; Biacore T200; β2M immobilised on a CM5 chip to 150 RU; VHH samples 'Origin' (no treatment) in 2-fold serial dilution, 30 μL/min, HBS-EP+, 25 °C; 1:1 model with drift and RI2.

The target in assay [2] is T1, β2-Microglobulin. The assay is described as follows: SPR; Biacore T200; β2M immobilised on a CM5 chip to 150 RU; VHH samples after the modification procedure (NHS-Fluo:VHH 0, 1, 5 or 20; 2 h at 4 °C, ultrafiltration) in 2-fold serial dilution, 30 μL/min, HBS-EP+, 25 °C; 1:1 model with drift and RI2.
The target in assay [3] is T2, β2-Microglobulin (β2M) (Homo sapiens, UniProt P61769).
T2 construct: β2-microglobulin, human (the title says anti-human β2-microglobulin VHHs); Probably the mature protein without the signal peptide (surmised); also called antigen β2M; human β2-microglobulin; source: expressed and purified as previously described [27]
The assay is described as follows: SPR; Biacore T200; β2M immobilized on a CM5 chip to 150 RU; 2-fold serial diluted VHH at 30 μL/min in HBS-EP+; 25 °C; 1:1 binding model; VHH samples after incubation with NHS-Fluo at molar ratio 0 (negative control), 1, 5 or 20 and ultrafiltration.

Assay [4] deals with T2, β2-Microglobulin (β2M). Description: SPR; Biacore T200; β2M immobilized on a CM5 chip to 150 RU; 2-fold serial diluted VHH at 30 μL/min in HBS-EP+; 25 °C; 1:1 binding model; VHH sample 'origin' without modification or other treatment.

This is an account of results in publication PMC6680903 (Molecules, 2019).

T2 sequence (P61769 21-119): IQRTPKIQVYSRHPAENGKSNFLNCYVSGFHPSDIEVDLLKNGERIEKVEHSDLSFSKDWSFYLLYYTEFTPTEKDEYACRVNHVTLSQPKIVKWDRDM
T1 sequence (P61769 21-119): as above

B1: NB-3 (VHH)
VHH: QVQLVESGGGLVQPGGSLRLSCAASGFSLDYYAIGWFRQAPGKEREGVSCISSSDDSTYYAGSVKGRFKISRDNAKSTVYLQMNSLKPEDSAVYYCAALHSGNYYYTPSYICDAEMDYWGKGTLVTVSS
notes: VHH domain of NB-3; flexible (G4S)4 linker between the VHH domain and the His6 tag, written out from '(G4S)4'; VHH-(G4S)4-His6; Template of the homology model: PDB 5J56 (GMQE 0.93). 'Origin' = no treatment; '0' = negative control; also called NB-3-Origin; NB-3-0; source: E. coli SHuffle T7, purified (HisTrap HP)
In the assay with β2-Microglobulin [1], B1 showed a Kd of 525 nM, a koff of 0.00154 s⁻¹ and a kon of 2940 M⁻¹ s⁻¹. In the assay with β2-Microglobulin [2], this molecule displayed a dissociation rate constant (koff) of 0.00165 s⁻¹ and a kon of 1310 M⁻¹ s⁻¹.

B2: NB-3 modified with 20 times of NHS-Fluo (VHH)
VHH: QVQLVESGGGLVQPGGSLRLSCAASGFSLDYYAIGWFRQAPGKEREGVSCISSSDDSTYYAGSVKGRFKISRDNAKSTVYLQMNSLKPEDSAVYYCAALHSGNYYYTPSYICDAEMDYWGKGTLVTVSS
notes: as the VHH domain of Dm10; flexible (G4S)4 linker between the VHH domain and the His6 tag, written out from '(G4S)4'; A mixture of isomers with different numbers and places of fluorescein; also called NB-3-20; source: E. coli SHuffle T7, purified (HisTrap HP), modified with NHS-Fluo, ultrafiltration
In the case of B2, in the assay with β2-Microglobulin [2], the koff was found to be 0.00402 s⁻¹ and the kon amounted to 286 M⁻¹ s⁻¹.

B3: NB-3 modified by a 20 fold amount of NHS-Fluo (VHH)
VHH: QVQLVESGGGLVQPGGSLRLSCAASGFSLDYYAIGWFRQAPGKEREGVSCISSSDDSTYYAGSVKGRFKISRDNAKSTVYLQMNSLKPEDSAVYYCAALHSGNYYYTPSYICDAEMDYWGKGTLVTVSS
notes: VHH domain as in m6 (NB-3); flexible (G4S)4 linker between the VHH domain and the 6xHis-tag, written out from the printed formula; Heterogeneous product of random amino modification; also called modified NB-3; NB-3 20:1; source: E. coli SHuffle T7, purified (HisTrap HP), then modified with NHS-Fluo (2 h, 4 °C), ultrafiltration
On to B3, for which the Kd in the assay with β2-Microglobulin (β2M) [3] stood at 14100 nM.

B4: NB-3 modified with 1 time of NHS-Fluo (VHH)
VHH: QVQLVESGGGLVQPGGSLRLSCAASGFSLDYYAIGWFRQAPGKEREGVSCISSSDDSTYYAGSVKGRFKISRDNAKSTVYLQMNSLKPEDSAVYYCAALHSGNYYYTPSYICDAEMDYWGKGTLVTVSS
notes: as the VHH domain of Dm10; flexible (G4S)4 linker between the VHH domain and the His6 tag, written out from '(G4S)4'; A mixture of isomers with different numbers and places of fluorescein; also called NB-3-1; source: E. coli SHuffle T7, purified (HisTrap HP), modified with NHS-Fluo, ultrafiltration
B4: in the assay with β2-Microglobulin [2], the Kd is 3490 nM, the koff was 0.00297 s⁻¹ and the kon was 849 M⁻¹ s⁻¹.

B5: NB-3 modified with 5 times of NHS-Fluo (VHH)
VHH: QVQLVESGGGLVQPGGSLRLSCAASGFSLDYYAIGWFRQAPGKEREGVSCISSSDDSTYYAGSVKGRFKISRDNAKSTVYLQMNSLKPEDSAVYYCAALHSGNYYYTPSYICDAEMDYWGKGTLVTVSS
notes: as the VHH domain of Dm10; flexible (G4S)4 linker between the VHH domain and the His6 tag, written out from '(G4S)4'; A mixture of isomers with different numbers and places of fluorescein; also called NB-3-5; source: E. coli SHuffle T7, purified (HisTrap HP), modified with NHS-Fluo, ultrafiltration
In the assay with β2-Microglobulin [2], B5 yielded a Kd of 6620 nM, a koff of 0.00369 s⁻¹ and a kon of 558 M⁻¹ s⁻¹.

B6: NB-3 (anti-β2M VHH, unmodified), VHH-(G4S)4-His6 (VHH)
VHH: QVQLVESGGGLVQPGGSLRLSCAASGFSLDYYAIGWFRQAPGKEREGVSCISSSDDSTYYAGSVKGRFKISRDNAKSTVYLQMNSLKPEDSAVYYCAALHSGNYYYTPSYICDAEMDYWGKGTLVTVSS
notes: VHH domain of NB-3; flexible (G4S)4 linker between the VHH domain and the 6xHis-tag, written out from the printed formula; Homology model built on template PDB 5J56 (GMQE 0.93), a template only; also called NB-3-origin; NB-3-0; source: E. coli SHuffle T7, purified (HisTrap HP)
With B6, in the assay with β2-Microglobulin (β2M) [3], the dissociation constant Kd is 1260 nM and the “fold increase of KD against the sample without any treatment” value is around 2 fold.

B7: NB-1 (VHH)
VHH: QVQLVESGGGLVQAGGSLRLSCAASGSTLDSYYIGWFRQAPGKEREGVSCISSSGNSIRYVDSVKDRFTISRDNGKNTAYLHINSLRPEDTAVYYCAASRRGRKPGLPCSLVRERYAYWGQGTQVTVSS
notes: VHH domain of NB-1; flexible (G4S)4 linker between the VHH domain and the His6 tag, written out from '(G4S)4'; VHH-(G4S)4-His6; Template of the homology model: PDB 4KDT (GMQE 0.99). 'Origin' = no treatment; '0' = negative control, all physical steps of the modification without NHS-Fluo; also called NB-1-Origin; NB-1-0; source: E. coli SHuffle T7, purified (HisTrap HP)
For the molecule B7, in the assay with β2-Microglobulin [1], the Kd amounted to 61.8 nM, the off-rate (koff) came out at 0.00614 s⁻¹ and the kon is 99300 M⁻¹ s⁻¹. In the assay with β2-Microglobulin [2], the koff was determined as 0.00669 s⁻¹ and the kon came to 48500 M⁻¹ s⁻¹.

B8: NB-1 (anti-β2M VHH, unmodified), VHH-(G4S)4-His6 (VHH)
VHH: QVQLVESGGGLVQAGGSLRLSCAASGSTLDSYYIGWFRQAPGKEREGVSCISSSGNSIRYVDSVKDRFTISRDNGKNTAYLHINSLRPEDTAVYYCAASRRGRKPGLPCSLVRERYAYWGQGTQVTVSS
notes: VHH domain of NB-1; flexible (G4S)4 linker between the VHH domain and the 6xHis-tag, written out from the printed formula; Homology model built on template PDB 4KDT (GMQE 0.99); also called NB-1-origin; NB-1-0; source: E. coli SHuffle T7, purified (HisTrap HP)
For the molecule B8, the equilibrium dissociation constant (Kd) with β2-Microglobulin (β2M) [4] amounted to 60 nM; with β2-Microglobulin (β2M) [3], 138 nM.

B9: NB-1 modified with 5 times of NHS-Fluo (VHH)
VHH: QVQLVESGGGLVQAGGSLRLSCAASGSTLDSYYIGWFRQAPGKEREGVSCISSSGNSIRYVDSVKDRFTISRDNGKNTAYLHINSLRPEDTAVYYCAASRRGRKPGLPCSLVRERYAYWGQGTQVTVSS
notes: as the VHH domain of Dm2; flexible (G4S)4 linker between the VHH domain and the His6 tag, written out from '(G4S)4'; A mixture of isomers with different numbers and places of fluorescein; also called NB-1-5; source: E. coli SHuffle T7, purified (HisTrap HP), modified with NHS-Fluo, ultrafiltration
In the assay with β2-Microglobulin [2], B9 returned a Kd of 202 nM, a koff of 0.00843 s⁻¹ and a kon of 41800 M⁻¹ s⁻¹.

B10: NB-1 modified with 1 time of NHS-Fluo (VHH)
VHH: QVQLVESGGGLVQAGGSLRLSCAASGSTLDSYYIGWFRQAPGKEREGVSCISSSGNSIRYVDSVKDRFTISRDNGKNTAYLHINSLRPEDTAVYYCAASRRGRKPGLPCSLVRERYAYWGQGTQVTVSS
notes: as the VHH domain of Dm2; flexible (G4S)4 linker between the VHH domain and the His6 tag, written out from '(G4S)4'; A mixture of isomers with different numbers and places of fluorescein, unmodified VHH among them; also called NB-1-1; source: E. coli SHuffle T7, purified (HisTrap HP), modified with NHS-Fluo, ultrafiltration
Take B10: in the assay with β2-Microglobulin [2], binding was put at a Kd of 177 nM, the koff was 0.00761 s⁻¹ and the kon worked out at 43000 M⁻¹ s⁻¹.
